Measurements reported in PMC10113190 (2023).

B1: Rh5_(proc), processed form of PfRh5 lacking the N-terminal domain (residues 145-526) (domain or fragment)
chain: LQYHFKELSNYNIANSIDILQEKEGHLDFVIIPHYTFLDYYKHLSYNSIYHKSSTYGKCIAVDAFIKKINEAYDKVKSKCNDIKNDLIATIKKLEHPYDINNKNDDSYRYDISEEIDDKSEETDDETEEVEDSIQDTDSNHAPSNKKKNDLMNRAFKKMMDEYNTKKKKLIKCIKNHENDFNKICMDMKNYGTNLFEQLSCYNNNFCNTNGIRYHYDEYIHKLILSVKSKNLNKDLSDMTNILQQSELLLTNLNKKMGSYIYIDTIKFIHKEMKHIFNRIEYHTKIINDKTKIIQDKIKLNIWRTFQKDELLKRILDMSNEYSLFITSDHLRQMLYNTFYSKEKHLNNIFHHLIYVLQMKFNDVPIKMEYFQTYKKNKPLTQ
B2: Rh5_(unproc), full-length PfRh5 (residues 26 to 526) (natural protein)
chain: ENAIKKTKNQENNLTLLPIKSTEEEKDDIKNGKDIKKEIDNDKENIKTNNAKDHSTYIKSYLNTNVNDGLKYLFIPSHNSFIKKYSVFNQINDGMLLNEKNDVKNNEDYKNVDYKNVNFLQYHFKELSNYNIANSIDILQEKEGHLDFVIIPHYTFLDYYKHLSYNSIYHKSSTYGKCIAVDAFIKKINEAYDKVKSKCNDIKNDLIATIKKLEHPYDINNKNDDSYRYDISEEIDDKSEETDDETEEVEDSIQDTDSNHAPSNKKKNDLMNRAFKKMMDEYNTKKKKLIKCIKNHENDFNKICMDMKNYGTNLFEQLSCYNNNFCNTNGIRYHYDEYIHKLILSVKSKNLNKDLSDMTNILQQSELLLTNLNKKMGSYIYIDTIKFIHKEMKHIFNRIEYHTKIINDKTKIIQDKIKLNIWRTFQKDELLKRILDMSNEYSLFITSDHLRQMLYNTFYSKEKHLNNIFHHLIYVLQMKFNDVPIKMEYFQTYKKNKPLTQ

Target: Biotinylated CyRPA (residues 29 to 362) with a C-terminal Avitag (P. falciparum, UniProt Q8IFM8 29-362, biotin (on the Avitag))
Test: BLI

Binder	Kd [nM]
B1	179
B2	127
